Among the data in paper PMC12751338, “Biochemical and functional characterization of orf virus decapping protein OV71” (Virology Journal, 2025) are IC50 and relative decapping ratio values, retold here.

The subject of data set [1] is his-OV71 (Orf virus (Taiping strain)). The data set can be described thus: competition. Conditions: EMSA: 20 mM HEPES, 10 mM EDTA, 1 M KCl, 1 mM DTT, 80 ug/mL BSA, 50% glycerol (so in the source), on ice 15 min, 0.05 pmol RNA. Pulldown: 100 mM K acetate. (In EMSA bound probe runs differently from free probe, usually more slowly.)
The target of data set [2] is T1, OV71 (ORFV071; his-OV71) (Orf virus strain SA00, UniProt Q6TVP9).
T1 construct: His-tagged, pET24a (NdeI/XhoI), E. coli BL21(DE3), Talon cobalt resin; approx. 25 kDa
Briefly: competition in decapping of radiolabeled capped RNA, TLC. The class given is biochemical. Conditions: 206-nt cap-labeled RNA substrate; 4 pmol enzyme; 2 mM MgCl2, 0.5 mM MnCl2, pH 7.5, 37 °C; added product as competitor.

For the compound 206 nt uncapped RNA competitor, the IC50 in data set [1] came out at 40 pmol.
As for `C[n+]1cn([C@@H]2O[C@H](COP(=O)(O)OP(=O)(O)O)[C@@H](O)[C@H]2O)c2nc(N)[nH]c(=O)c21` [m^7GDP], in data set [2], the relative decapping ratio entry was “decapping product m^7GDP modestly inhibited the decapping (Fig. 3D and E), indicating weak affinity”.
